Values quoted from earlier work, collected in article PMC2627783.

Target: IscU (Escherichia coli) (UniProt P0ACD4)
Assay: ITC

HscB, sequence (P0A6L9 whole entry): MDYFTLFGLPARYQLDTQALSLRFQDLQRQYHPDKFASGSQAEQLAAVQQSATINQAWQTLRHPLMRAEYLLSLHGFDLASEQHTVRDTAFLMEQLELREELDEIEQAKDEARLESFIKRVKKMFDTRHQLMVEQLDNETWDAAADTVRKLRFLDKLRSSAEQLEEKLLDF
IscU (Escherichia coli), sequence (P0ACD4 whole entry): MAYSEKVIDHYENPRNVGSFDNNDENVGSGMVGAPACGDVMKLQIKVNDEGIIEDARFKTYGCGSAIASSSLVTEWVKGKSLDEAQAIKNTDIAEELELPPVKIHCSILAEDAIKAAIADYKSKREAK

For HscB (from UniProt P0A6L9), the Kd is listed as 10 µM.
